Measured values reported in PMC9482650, “Quantitative fragmentomics allow affinity mapping of interactomes” (Nature Communications, 2022).

Tests used:
Assay in all cases: holdup assay
Parameters in all cases: key: below the threshold = too weak to quantify, mostly under pKd 3.1 to 4
Settings in all cases: plain residues with an end cap or a label only (N-terminal biotin on a linker: ttds)
FRMPD2_1, Q68DX3 = target: FRMPD2_1, Q68DX3
HTRA2, O43464 = target: HTRA2, O43464
MAGI1_2, Q96QZ7 = target: MAGI1_2, Q96QZ7
Chain of MAGI1_2, Q96QZ7 (Q96QZ7 456-580): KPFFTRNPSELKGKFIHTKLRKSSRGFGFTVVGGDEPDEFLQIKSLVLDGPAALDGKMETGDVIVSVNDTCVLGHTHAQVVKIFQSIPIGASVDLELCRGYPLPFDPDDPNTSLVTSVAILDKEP

MPDZ_10, O75970 = target: T1, MPDZ_10, O75970
T1 sequence (O75970 1624-1722, limits assumed, looked up): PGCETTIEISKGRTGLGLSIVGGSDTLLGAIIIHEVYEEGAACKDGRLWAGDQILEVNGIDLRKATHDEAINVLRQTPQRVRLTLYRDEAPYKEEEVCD

DLG4_1, P78352 = target: DLG4_1, P78352
Chain of DLG4_1, P78352 (P78352 62-152): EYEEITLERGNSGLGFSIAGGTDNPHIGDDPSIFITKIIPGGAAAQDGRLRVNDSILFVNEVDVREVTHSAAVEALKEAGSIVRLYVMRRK

MAGI3_2, Q5TCQ9 = target: MAGI3_2, Q5TCQ9
Chain of MAGI3_2, Q5TCQ9 (Q5TCQ9 398-503): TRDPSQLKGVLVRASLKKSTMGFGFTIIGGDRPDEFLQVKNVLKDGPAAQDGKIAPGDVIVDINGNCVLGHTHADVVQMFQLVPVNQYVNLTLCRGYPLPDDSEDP

SIPA1L2, Q9P2F8 = target: T2, SIPA1L2, Q9P2F8
T2 sequence (Q9P2F8 945-1036, limits assumed, looked up): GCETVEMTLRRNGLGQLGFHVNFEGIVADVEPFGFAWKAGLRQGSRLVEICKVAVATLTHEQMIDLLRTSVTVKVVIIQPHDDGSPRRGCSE

SNX27, Q96L92 = target: SNX27, Q96L92
GORASP1, Q9BQQ3 = target: GORASP1, Q9BQQ3
Chain of GORASP1, Q9BQQ3 (Q9BQQ3 1-208): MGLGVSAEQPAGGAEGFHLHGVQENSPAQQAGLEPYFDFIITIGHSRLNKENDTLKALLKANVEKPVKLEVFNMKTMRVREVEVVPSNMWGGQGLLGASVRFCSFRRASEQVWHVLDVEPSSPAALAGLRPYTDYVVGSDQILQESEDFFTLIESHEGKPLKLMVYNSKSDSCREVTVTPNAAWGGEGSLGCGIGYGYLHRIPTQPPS

LIN7B, Q9HAP6 = target: T3, LIN7B, Q9HAP6
T3 sequence (Q9HAP6 88-185, limits assumed, looked up): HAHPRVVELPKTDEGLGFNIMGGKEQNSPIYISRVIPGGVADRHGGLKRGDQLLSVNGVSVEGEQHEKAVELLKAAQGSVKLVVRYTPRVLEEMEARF

GRASP, Q7Z6J2 = target: GRASP, Q7Z6J2
Chain of GRASP, Q7Z6J2 (Q7Z6J2 96-193): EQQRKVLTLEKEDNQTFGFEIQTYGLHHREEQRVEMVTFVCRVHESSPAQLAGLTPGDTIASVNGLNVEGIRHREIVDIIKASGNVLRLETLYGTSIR

MPP7, Q5T2T1 = target: T4, MPP7, Q5T2T1
T4 sequence (Q5T2T1 134-230, limits assumed, looked up): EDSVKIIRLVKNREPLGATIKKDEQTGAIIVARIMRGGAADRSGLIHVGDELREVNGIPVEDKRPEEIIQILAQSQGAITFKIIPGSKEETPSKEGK

DLG4_2, P78352 = target: DLG4_2, P78352
Chain of DLG4_2, P78352 (P78352 155-259): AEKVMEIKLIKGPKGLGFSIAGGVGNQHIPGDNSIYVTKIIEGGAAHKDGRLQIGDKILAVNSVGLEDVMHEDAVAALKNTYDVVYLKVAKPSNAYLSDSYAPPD

GRIP1_5, Q9Y3R0 = target: T5, GRIP1_5, Q9Y3R0
T5 sequence (Q9Y3R0 568-668, limits assumed, looked up): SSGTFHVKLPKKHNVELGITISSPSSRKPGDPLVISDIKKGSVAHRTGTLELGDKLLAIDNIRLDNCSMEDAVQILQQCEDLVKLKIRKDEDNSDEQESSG

APBA2_2, Q99767 = target: T6, APBA2_2, Q99767
T6 sequence (Q99767 654-744, limits assumed, looked up): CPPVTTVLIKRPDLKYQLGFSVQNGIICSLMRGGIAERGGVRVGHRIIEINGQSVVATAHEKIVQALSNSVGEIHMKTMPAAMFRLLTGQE

GRIP2_4, Q9C0E4 = target: GRIP2_4, Q9C0E4
Chain of GRIP2_4, Q9C0E4 (Q9C0E4 446-548): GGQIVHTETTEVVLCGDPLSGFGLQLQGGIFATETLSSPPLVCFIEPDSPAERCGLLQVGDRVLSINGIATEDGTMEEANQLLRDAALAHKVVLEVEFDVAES

SNTG1, Q9NSN8 = target: T7, SNTG1, Q9NSN8
T7 sequence (Q9NSN8 52-150, limits assumed, looked up): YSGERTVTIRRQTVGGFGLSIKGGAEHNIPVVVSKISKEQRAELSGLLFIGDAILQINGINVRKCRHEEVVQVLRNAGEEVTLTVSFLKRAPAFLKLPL

DLG1_2, Q12959 = target: DLG1_2, Q12959
Chain of DLG1_2, Q12959 (Q12959 314-412): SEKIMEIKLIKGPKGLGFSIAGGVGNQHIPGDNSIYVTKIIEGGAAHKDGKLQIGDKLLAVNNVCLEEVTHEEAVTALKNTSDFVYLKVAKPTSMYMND

LAP2, Q96RT1 = target: LAP2, Q96RT1
Chain of LAP2, Q96RT1 (Q96RT1 other isoform, or with tags, fused parts or gaps): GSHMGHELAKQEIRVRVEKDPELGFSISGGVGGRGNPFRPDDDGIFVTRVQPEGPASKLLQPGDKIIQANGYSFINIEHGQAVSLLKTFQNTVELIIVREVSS

HTRA1, Q92743 = target: HTRA1, Q92743
Chain of HTRA1, Q92743 (Q92743 360-477): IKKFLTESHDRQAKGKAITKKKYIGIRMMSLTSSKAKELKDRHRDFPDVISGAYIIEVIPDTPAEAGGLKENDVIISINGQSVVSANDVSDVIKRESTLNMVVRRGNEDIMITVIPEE

SYNJ2BP, P57105 = target: T8, SYNJ2BP, P57105
T8 sequence (P57105 8-110, limits assumed, looked up): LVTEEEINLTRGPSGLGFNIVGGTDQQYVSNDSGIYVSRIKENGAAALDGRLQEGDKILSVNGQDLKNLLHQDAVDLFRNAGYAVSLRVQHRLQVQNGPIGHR

GRID2IP_1, A4D2P6 = target: GRID2IP_1, A4D2P6
Chain of GRID2IP_1, A4D2P6 (A4D2P6 1-87): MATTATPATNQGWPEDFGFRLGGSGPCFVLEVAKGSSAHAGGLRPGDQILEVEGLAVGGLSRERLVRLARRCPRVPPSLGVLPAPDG

MAGI2_4, Q86UL8 = target: MAGI2_4, Q86UL8
Chain of MAGI2_4, Q86UL8 (Q86UL8 772-865): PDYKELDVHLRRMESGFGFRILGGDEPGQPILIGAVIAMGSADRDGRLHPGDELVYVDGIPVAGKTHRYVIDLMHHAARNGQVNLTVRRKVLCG

GRIP2_6, Q9C0E4 = target: GRIP2_6, Q9C0E4
Chain of GRIP2_6, Q9C0E4 (Q9C0E4 648-740): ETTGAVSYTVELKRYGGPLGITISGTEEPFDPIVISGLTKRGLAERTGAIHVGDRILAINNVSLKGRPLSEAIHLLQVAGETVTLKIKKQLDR

PDLIM1, O00151 = target: PDLIM1, O00151
Chain of PDLIM1, O00151 (O00151 1-87): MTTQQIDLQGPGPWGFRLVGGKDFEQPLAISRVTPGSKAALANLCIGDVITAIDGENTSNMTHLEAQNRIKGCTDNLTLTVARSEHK

GOPC, Q9HD26 = target: GOPC, Q9HD26
DLG1_3, Q12959 = target: DLG1_3, Q12959
Chain of DLG1_3, Q12959 (Q12959 457-571): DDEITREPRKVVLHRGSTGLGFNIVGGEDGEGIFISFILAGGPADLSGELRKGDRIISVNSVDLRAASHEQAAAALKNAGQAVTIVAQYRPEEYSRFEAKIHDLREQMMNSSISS

RHPN1, Q8TCX5 = target: T9, RHPN1, Q8TCX5
T9 sequence (Q8TCX5 508-602, limits assumed, looked up): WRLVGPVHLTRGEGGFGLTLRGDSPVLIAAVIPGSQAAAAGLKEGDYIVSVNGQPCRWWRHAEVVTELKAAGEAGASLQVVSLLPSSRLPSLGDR

ARHGEF12, Q9NZN5-2 = target: ARHGEF12, Q9NZN5-2
Chain of ARHGEF12, Q9NZN5-2 (Q9NZN5 other isoform, or with tags, fused parts or gaps): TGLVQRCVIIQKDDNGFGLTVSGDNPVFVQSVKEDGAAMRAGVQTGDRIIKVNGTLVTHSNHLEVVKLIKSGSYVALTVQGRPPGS

Chain of FRMPD2_1, Q68DX3 (Q68DX3 770-861): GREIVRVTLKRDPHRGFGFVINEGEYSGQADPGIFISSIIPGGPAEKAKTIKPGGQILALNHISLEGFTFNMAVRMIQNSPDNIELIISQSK
Chain of HTRA2, O43464 (O43464 355-458): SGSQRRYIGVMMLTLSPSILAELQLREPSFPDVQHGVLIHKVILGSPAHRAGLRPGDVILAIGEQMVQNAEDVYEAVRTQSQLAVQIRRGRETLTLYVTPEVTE

pKd (FRMPD2_1, Q68DX3): 3.84
pKd (HTRA2, O43464): 3.68
pKd (MAGI1_2, Q96QZ7): 3.86
pKd (MPDZ_10, O75970): below the threshold
pKd (DLG4_1, P78352): 4.23
pKd (MAGI3_2, Q5TCQ9): 4
pKd (SIPA1L2, Q9P2F8): below the threshold
pKd (SNX27, Q96L92): 5.85
pKd (GORASP1, Q9BQQ3): below the threshold
pKd (LIN7B, Q9HAP6): 4.44
pKd (GRASP, Q7Z6J2): 4.74
pKd (MPP7, Q5T2T1): 3.56
pKd (DLG4_2, P78352): 4.23
pKd (GRIP1_5, Q9Y3R0): below the threshold
pKd (APBA2_2, Q99767): below the threshold
pKd (GRIP2_4, Q9C0E4): below the threshold
pKd (SNTG1, Q9NSN8): 4.89
pKd (DLG1_2, Q12959): 4.57
pKd (LAP2, Q96RT1): 4.57
pKd (HTRA1, Q92743): below the threshold
pKd (SYNJ2BP, P57105): 5.56
pKd (GRID2IP_1, A4D2P6): 3.48
pKd (MAGI2_4, Q86UL8): 3.54
pKd (GRIP2_6, Q9C0E4): below the threshold
pKd (PDLIM1, O00151): 3.85
pKd (GOPC, Q9HD26): 4.52
pKd (DLG1_3, Q12959): 4.38
pKd (RHPN1, Q8TCX5): 4.87
pKd (ARHGEF12, Q9NZN5-2): 5.21
Binder: STLTIFETAL [ABCC4, O15439]
